Source: patent publication US20210198347A1 (Chugai, published 2021)

T1: recombinant human C1r CCP1-CCP2-SP-FLAG (human, UniProt P00736 307-705)
T1 construct: Truncated protein lacking the CUB1-EGF-CUB2 domain of C1r; also called human C1r CCP1-CCP2-SP I307-D705
T1 chain: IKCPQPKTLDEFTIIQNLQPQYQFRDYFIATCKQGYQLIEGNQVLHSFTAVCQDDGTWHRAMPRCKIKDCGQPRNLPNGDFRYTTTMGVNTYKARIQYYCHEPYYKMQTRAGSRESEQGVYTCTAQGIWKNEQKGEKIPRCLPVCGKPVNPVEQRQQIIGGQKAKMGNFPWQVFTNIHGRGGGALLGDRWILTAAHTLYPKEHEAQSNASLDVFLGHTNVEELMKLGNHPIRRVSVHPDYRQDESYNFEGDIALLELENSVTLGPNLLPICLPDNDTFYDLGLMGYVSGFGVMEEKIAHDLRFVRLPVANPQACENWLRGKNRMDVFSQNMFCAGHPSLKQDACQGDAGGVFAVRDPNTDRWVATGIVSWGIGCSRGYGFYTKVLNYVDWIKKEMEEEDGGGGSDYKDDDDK

T2: recombinant human C1r2s2 Flag/His tetramer (human, UniProt P09871 16-688; P00736 18-705)
T2 construct: whole entries named; also called hc1r2s2; rC1r2s2
T2 chain 1: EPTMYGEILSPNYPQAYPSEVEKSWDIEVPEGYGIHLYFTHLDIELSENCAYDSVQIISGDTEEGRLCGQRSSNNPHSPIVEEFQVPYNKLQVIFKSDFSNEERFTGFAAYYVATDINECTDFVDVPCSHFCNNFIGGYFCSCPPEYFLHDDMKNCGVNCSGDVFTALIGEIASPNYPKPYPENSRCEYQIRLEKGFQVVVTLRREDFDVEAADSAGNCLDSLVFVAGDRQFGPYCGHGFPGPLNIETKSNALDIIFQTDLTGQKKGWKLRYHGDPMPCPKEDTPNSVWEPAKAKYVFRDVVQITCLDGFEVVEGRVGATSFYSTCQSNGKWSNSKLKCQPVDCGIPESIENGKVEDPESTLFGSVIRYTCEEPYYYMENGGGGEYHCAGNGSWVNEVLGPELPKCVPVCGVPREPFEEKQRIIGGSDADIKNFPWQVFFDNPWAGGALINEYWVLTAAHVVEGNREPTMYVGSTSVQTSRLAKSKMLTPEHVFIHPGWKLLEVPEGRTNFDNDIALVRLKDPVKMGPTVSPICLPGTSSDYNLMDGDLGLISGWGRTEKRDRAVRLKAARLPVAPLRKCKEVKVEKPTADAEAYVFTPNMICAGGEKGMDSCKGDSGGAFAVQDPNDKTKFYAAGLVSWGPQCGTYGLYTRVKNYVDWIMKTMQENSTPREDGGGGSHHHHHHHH
T2 chain 2: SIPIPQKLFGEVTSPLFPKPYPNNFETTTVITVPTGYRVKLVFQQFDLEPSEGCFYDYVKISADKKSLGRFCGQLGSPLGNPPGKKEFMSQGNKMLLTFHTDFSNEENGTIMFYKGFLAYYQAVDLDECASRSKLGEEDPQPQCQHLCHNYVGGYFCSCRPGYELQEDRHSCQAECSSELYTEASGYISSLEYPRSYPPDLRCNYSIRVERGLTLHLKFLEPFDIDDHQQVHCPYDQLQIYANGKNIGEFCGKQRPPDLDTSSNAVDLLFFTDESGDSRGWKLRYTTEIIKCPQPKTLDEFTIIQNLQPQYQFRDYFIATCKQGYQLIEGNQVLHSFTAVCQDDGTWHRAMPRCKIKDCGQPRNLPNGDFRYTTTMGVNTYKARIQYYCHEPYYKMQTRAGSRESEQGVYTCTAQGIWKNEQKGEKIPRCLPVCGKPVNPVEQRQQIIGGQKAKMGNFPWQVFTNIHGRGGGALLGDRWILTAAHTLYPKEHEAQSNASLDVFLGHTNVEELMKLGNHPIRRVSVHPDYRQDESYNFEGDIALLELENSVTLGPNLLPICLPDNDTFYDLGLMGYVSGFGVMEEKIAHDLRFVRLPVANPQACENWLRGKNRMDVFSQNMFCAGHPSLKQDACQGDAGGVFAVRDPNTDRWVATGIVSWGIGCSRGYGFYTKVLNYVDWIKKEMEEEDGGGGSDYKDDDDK


Experiments:
[1] = target: T1, recombinant human C1r CCP1-CCP2-SP-FLAG; experiment: SPR (BIACORE T200, 37 degrees C, pH 7.4, 1.2 mM CaCl2), antibody captured by protein A/G
[2] = target: T2, recombinant human C1r2s2 Flag/His …; experiment: SPR displacement (37 degrees C, pH 7.4): C1r2s2 captured by anti-His, C1q 100 nM pre-bound, antibody 500 nM at 10 micro L/min; time from antibody injection until the antibody sensorgram falls below the buffer sensorgram; competitor native human C1q
Protocol: An anti-His antibody (GE-Healthcare) is immobilized onto all flow cells of a CM4 sensor chip using an amine coupling kit (GE Healthcare). The antibodies, recombinant human C1r2s2 Flag/His tetramer and native human C1q (Comptech A099) are prepared in pH 7.4 buffer (20 mM ACES, 150 mM NaCl, 1.2 mM CaCl₂, 1 mg/mL BSA (IgG-free), 1 mg/mL CMD, 0.05% Tween 20, 0.005% NaN₃, pH 7.4). Recombinant human C1r2s2 Flag/His tetramer is first captured onto the sensor surface by the anti-His antibody (“hc1r2s2”). The capture levels are aimed at 200 resonance unit (RU). Native human C1q is injected at 100 nM to have a capture of 200 RU (“hc1q”), followed by antibody injection at 500 nM at 10 micro L/min for 1200 sec immediately. The sensor surface is regenerated each cycle with 10 mM Glycine-HCl (pH 1.5). For antibodies with the C1q displacement function, the response unit of Sensorgram 2 (in the presence of C1r2s2, C1q, and antibody) is lower than the response unit in Sensorgram 1 (in the presence of C1r2s2, C1q, and buffer, but in the absence of antibody) after the time point where Sensorgrams 1 and 2 cross (“time point of crossover”).
The time point of crossover is identified by subtraction of the buffer response (Sensorgram 1) from the antibody (Ab) response (Sensorgram 2), and referring to the time point when the differential value changes from positive to negative (Table 5).

binding result [1] | Time point of crossover (post-injection) [2] [s] | Binder
no binding (tested: 50 nM) | 218 | COR0278bb-SG1148 (antibody, human IgG1, kappa, V domains shown, Anti-C1r antibody) VH: QSLEESGGRLVTPGTPLTLTCTASGFSLSSYDMTWVRQAPGKGLEWIGIIYTLGSAYYASWAKGRFTISRTSTTVDLKMTSPTTEDTATYFCARGGDSYGAVDTAFDLWGPGTLVTVSS VL: AQVLTQTPSPVSAAVGGTVTISCQSSPSVYSNYLSWYQQKPGQPPKLLIYRASRLASGVPSRFKGSGSGTQFTLTISEVQCDDAATYYCQGYFGNGINAFGGGTKVEIKR
no binding (tested: 50 nM) | 613 | COR0011bb-SG1148 (antibody, human IgG1, kappa, V domains shown, Anti-C1r antibody) VH: QSLEESGGRLVTPGTPLTLTCTASGFTFSGYYMCWVRQTPGKGLEYIGIIASSGNTYYANWAKGRFTISKTSSTTVDLKMTSLTTEDTATYFCAKPESDYVNGMGLWGPGTLVTVSS VL: DIVMTQTPASVSDPVGGTVTIKCQASQSIYNLLSWYQQKPGQRPKLLIYDASKLASGVPSRFKGSGYGTDFTLTISDLGCADAATYYCQSNYGYSRTDDTFFYGFGGGTKVEIKR
no binding (tested: 50 nM) | 197 | COR0208cc-SG1148 (antibody, human IgG1, kappa, V domains shown, Anti-C1r antibody; also called COR208; COR208cc(-SG1148)) VH: QSVEESGGRLVTPGTPLTLTCTVSGFSLSNYYMNWVRQAPGKGLEWIGIIASDDNTWYASWAKGRFTISKTSTTVDLKITSPTTEDTATYFCARDLDVGYGSGWYDLWGQGTLVTVSS VL: AAVLTQTPSPVSVAVGGTVTINCQASQSVYNNNYLAWYQQEPGHRPKLLIYRASKLASGVPSRFSGSGSGTQFTLTISGVQCDDAATYYCLGGYDDFTDTTFGGGTKVEIKR
no binding (tested: 50 nM) | 235 | COR0058bb-SG1148 (antibody, human IgG1, kappa, V domains shown, Anti-C1r antibody) VH: QSVEESGGRLVTPGTPLTLTCTASGFDISNYNMQWVRQSPGKGLEWIGIIWSGGYTDYANWAKGRFTISATSTTVDLKSTSPTTEDTATYFCARQGANFGDYTVDLWGPGTLVTVSS VL: AYDMTQTPASVEVAVGGTVTIKCQASQSIRSSLAWYQQKPGQRPKLLIYRASTLASGVSSRFKGSGSGTQFTLTISGVECADAATYYCQQGYSNINVDNTFGGGTKVEIKR

Continued, binder first:

Binder | binding result [1] | Time point of crossover (post-injection) [2] [s]
COR0067ff-SG1148 (antibody, human IgG1, kappa, V domains shown, Anti-C1r antibody) VH: QSLEESGGGLVQPEGSLTLTCKASGIDFSSNAMCWVRQAPGKGLEWIGCIYTGSTTIWYASWAKGRFTISKTSSTTVTLQLNSLTVADTATYFCARRDSSSGYAFKLWGPGTLVTVSS VL: DIVMTQTPSSVSAAVGGTVTIKCQASENIYSNLAWYQQKSGQPPNLLIYGASTLESGVPSRFKGSGSGTEFTLTISDLECADAAIYYCQCTYDDSSTFGGGTKVEIKR | no binding (tested: 50 nM) | 85
COR0338gg-SG1148 (antibody, human IgG1, kappa, V domains shown, Anti-C1r antibody) VH: QSLEESGGGLVQPEGSLTLTCKASGIDFSSNAMCWVRQAPGKGLEWIACIYTGSTTIWYATWAKGRFTISKTSSTTVTLQLNSLTVADTATYFCARRASSSGYAFKLWGPGTLVTVSS VL: DVVMTQTPFSVSAAVGGTVTIKCQASESIYSNLAWYQQKPGQPPNLLIYGASTLESGVPSRFKGSGSGTEFTLTISDLECDDAAIYYCQCTYDDSSTFGGGTKVEIKR | no binding (tested: 50 nM) | 101
COR0212bb-SG1148 (antibody, human IgG1, kappa, V domains shown, Anti-C1r antibody) VH: QEQLKESGGGLVTPGGTLTLTCTASGFSLSSYDMSWVRQAPGKGLDWIGIINTGGSAYYATWAKGRFTISKTSTTVDLKITSPTTEDTATYFCGRKINDAFDPWGPGTLVTVSS VL: AQVLTQTPFSVSAAVGGTVTINCQASESISSNLAWYQQKPGQPPKLLIYDASDLASGVPSRFKGSGSGKQFTLTISGVQCDDAATYFCQHGWIYDTIDSNCFGGGTKVEIKR | no binding (tested: 50 nM) | 432
COR0205gg-SG1148 (antibody, human IgG1, kappa, V domains shown, Anti-C1r antibody; also called COR205gg(-SG1148)) VH: QSLEESGGGLFKPTDTLTLTCTVSGFSLSSNAMSWVRQAPGKGLEYIGIIYLTGVTYYATWAKGRFTISKTSTTVDLKITSPTTEDTATYFCAGGEFSLWGPGTLVTVSS VL: DIIMTQTPASVEAAVGGTVTIKCQASQGIDNYFSWHQQKPGQPPKLLIYKASTLASGVSSRFKGSGSGTEFTLTISDLECDDAATYYCQCTYGYNINDNYGNAFGGGTKVEIKR | no binding (tested: 50 nM) | 216
